The RNAGym collection of RNA variant scans (doi:10.7554/elife.90254)

B1: LINE1-full (parent)
chain: UACGUAGGUGGUUUUCCCCUGAUAGUGCUAAGGGGGCCUGGAAGUUUGGACUGGGCAGAGCUCAACACAGCGUGGCAAAGUGGCUGUGGCUAGACUGCCUCUCUGGAUUCCUCGUCACUCAGCAGGGCAUCUCUGAGAGAAAUGCC

Variants of: B1
Assay: self-cleavage, relative activity (ratio to wild type); higher = more cleavage; in vitro, sequencing; the parent is a self-cleaving ribozyme

Variant	self-cleavage
UACGUAGGUGGUUUUCCCCUGAUAGUGCUAAGGGGGCCUGGAAGUUUGGACCGGGCUGAGCUCAACACAGCGUGGCAAAGUGGCUGUGGCUAGACUGCCUCUCUGGAUUCCUCGUCACUCAGCAGGGCAUCUCUGAGAGAAAUGCC [U52C A57U]	0.08
UACGUAGGUGGUUUUCCCCUGAUAGUGCUAAGGGGGCCUGGAAGUUUGGACCGGGCAGGGCUCAACACAGCGUGGCAAAGUGGCUGUGGCUAGACUGCCUCUCUGGAUUCCUCGUCACUCAGCAGGGCAUCUCUGAGAGAAAUGCC [U52C A59G]	0.16
UACGUAGGUGGUUUUCCCCUGAUAGUGCUAAGGGGGCCUGGAAGUUUGGACCGGGCAGAGCUCCACACAGCGUGGCAAAGUGGCUGUGGCUAGACUGCCUCUCUGGAUUCCUCGUCACUCAGCAGGGCAUCUCUGAGAGAAAUGCC [U52C A64C]	0.51
UACGUAGGUGGUUUUCCCCUGAUAGUGCUAAGGGGGCCUGGAAGUUUGGACCGGGCAGAGCUCAGCACAGCGUGGCAAAGUGGCUGUGGCUAGACUGCCUCUCUGGAUUCCUCGUCACUCAGCAGGGCAUCUCUGAGAGAAAUGCC [U52C A65G]	0.07
UACGUAGGUGGUUUUCCCCUGAUAGUGCUAAGGGGGCCUGGAAGUUUGGACCGGGCAGAGCUCAACGCAGCGUGGCAAAGUGGCUGUGGCUAGACUGCCUCUCUGGAUUCCUCGUCACUCAGCAGGGCAUCUCUGAGAGAAAUGCC [U52C A67G]	0.61
UACGUAGGUGGUUUUCCCCUGAUAGUGCUAAGGGGGCCUGGAAGUUUGGACCGGGCAGAGCUCAACACAGCGUGGCAGAGUGGCUGUGGCUAGACUGCCUCUCUGGAUUCCUCGUCACUCAGCAGGGCAUCUCUGAGAGAAAUGCC [U52C A78G]	1
UACGUAGGUGGUUUUCCCCUGAUAGUGCUAAGGGGGCCUGGAAGUUUGGACCGGGCAGAGCUCAACACAGCGUGGCAAGGUGGCUGUGGCUAGACUGCCUCUCUGGAUUCCUCGUCACUCAGCAGGGCAUCUCUGAGAGAAAUGCC [U52C A79G]	0.75
UACGUAGGUGGUUUUCCCCUGAUAGUGCUAAGGGGGCCUGGAAGUUUGGACCGGGCAGAGCUCAACACAGCGUGGCAAAGUGGCUGUGGCUCGACUGCCUCUCUGGAUUCCUCGUCACUCAGCAGGGCAUCUCUGAGAGAAAUGCC [U52C A92C]	0
UACGUAGGUGGUUUUCCCCUGAUAGUGCUAAGGGGGCCUGGAAGUUUGGACCGGGCAGAGCUCAACACAGCGUGGCAAAGUGGCUGUGGCUUGACUGCCUCUCUGGAUUCCUCGUCACUCAGCAGGGCAUCUCUGAGAGAAAUGCC [U52C A92U]	0.52
UACGUAGGUGGUUUUCCCCUGAUAGUGCUAAGGGGGCCUGGAAGUUUGGACCGGGCAGAGCUCAACACAGCGUGGCAAAGUGGCUGUGGCUAGACUGCCUCUCUGGUUUCCUCGUCACUCAGCAGGGCAUCUCUGAGAGAAAUGCC [U52C A107U]	1.63
UACGUAGGUGGUUUUCCCCUGAUAGUGCUAAGGGGGCCUGGAAGUUUGGACCGGGCAGAGCUCAACACAGCGUGGCAAAGUGGCUGUGGCUAGACUGCCUCUCUGGAUUCCUCGUCCCUCAGCAGGGCAUCUCUGAGAGAAAUGCC [U52C A117C]	0.42
UACGUAGGUGGUUUUCCCCUGAUAGUGCUAAGGGGGCCUGGAAGUUUGGACCGGGCAGAGCUCAACACAGCGUGGCAAAGUGGCUGUGGCUAGACUGCCUCUCUGGAUUCCUCGUCGCUCAGCAGGGCAUCUCUGAGAGAAAUGCC [U52C A117G]	1.04
UACGUAGGUGGUUUUCCCCUGAUAGUGCUAAGGGGGCCUGGAAGUUUGGACCGGGCAGAGCUCAACACAGCGUGGCAAAGUGGCUGUGGCUAGACUGCCUCUCUGGAUUCCUCGUCACUCUGCAGGGCAUCUCUGAGAGAAAUGCC [U52C A121U]	1.5
UACGUAGGUGGUUUUCCCCUGAUAGUGCUAAGGGGGCCUGGAAGUUUGGACCGGGCAGAGCUCAACACAGCGUGGCAAAGUGGCUGUGGCUAGACUGCCUCUCUGGAUUCCUCGUCACUCAGCGGGGCAUCUCUGAGAGAAAUGCC [U52C A124G]	0.48
UACGUAGGUGGUUUUCCCCUGAUAGUGCUAAGGGGGCCUGGAAGUUUGGACCGGGCAGAGCUCAACACAGCGUGGCAAAGUGGCUGUGGCUAGACUGCCUCUCUGGAUUCCUCGUCACUCAGCUGGGCAUCUCUGAGAGAAAUGCC [U52C A124U]	1.48
UACGUAGGUGGUUUUCCCCUGAUAGUGCUAAGGGGGCCUGGAAGUUUGGACCGGGCAGAGCUCAACACAGCGUGGCAAAGUGGCUGUGGCUAGACUGCCUCUCUGGAUUCCUCGUCACUCAGCAGGGCUUCUCUGAGAGAAAUGCC [U52C A129U]	1.61
UACGUAGGUGGUUUUCCCCUGAUAGUGCUAAGGGGGCCUGGAAGUUUGGACCGGGCAGAGCUCAACACAGCGUGGCAAAGUGGCUGUGGCUAGACUGCCUCUCUGGAUUCCUCGUCACUCAGCAGGGCAUCUCUGGGAGAAAUGCC [U52C A136G]	2.9
UACGUAGGUGGUUUUCCCCUGAUAGUGCUAAGGGGGCCUGGAAGUUUGGACCGGGCAGAGCUCAACACAGCGUGGCAAAGUGGCUGUGGCUAGACUGCCUCUCUGGAUUCCUCGUCACUCAGCAGGGCAUCUCUGUGAGAAAUGCC [U52C A136U]	0.81
UACGUAGGUGGUUUUCCCCUGAUAGUGCUAAGGGGGCCUGGAAGUUUGGACCGGGCAGAGCUCAACACAGCGUGGCAAAGUGGCUGUGGCUAGACUGCCUCUCUGGAUUCCUCGUCACUCAGCAGGGCAUCUCUGAGGGAAAUGCC [U52C A138G]	1.48
UACGUAGGUGGUUUUCCCCUGAUAGUGCUAAGGGGGCCUGGAAGUUUGGACCGGGCAGAGCUCAACACAGCGUGGCAAAGUGGCUGUGGCUAGACUGCCUCUCUGGAUUCCUCGUCACUCAGCAGGGCAUCUCUGAGUGAAAUGCC [U52C A138U]	1.5

Variant	self-cleavage
UACGUAGGUGGUUUUCCCCUGAUAGUGCUAAGGGGGCCUGGAAGUUUGGACCGGGCAGAGCUCAACACAGCGUGGCAAAGUGGCUGUGGCUAGACUGCCUCUCUGGAUUCCUCGUCACUCAGCAGGGCAUCUCUGAGAGAGAUGCC [U52C A141G]	1.25
UACGUAGGUGGUUUUCCCCUGAUAGUGCUAAGGGGGCCUGGAAGUUUGGACCGGGCAGAGCUCAACACAGCGUGGCAAAGUGGCUGUGGCUAGACUGCCUCUCUGGAUUCCUCGUCACUCAGCAGGGCAUCUCUGAGAGAUAUGCC [U52C A141U]	1.14
UACGUAGGUGGUUUUCCCCUGAUAGUGCUAAGGGGGCCUGGAAGUUUGGACCGGGCAGAGCUCAACACAGCGUGGCAAAGUGGCUGUGGCUAGACUGCCUCUCUGGAUUCCUCGUCACUCAGCAGGGCAUCUCUGAGAGAAGUGCC [U52C A142G]	1.02
UACGUAGGUGGUUUUCCCCUGAUAGUGCUAAGGGGGCCUGGAAGUUUGGACCGGGCAGAGCUCAACACAGAGUGGCAAAGUGGCUGUGGCUAGACUGCCUCUCUGGAUUCCUCGUCACUCAGCAGGGCAUCUCUGAGAGAAAUGCC [U52C C71A]	0.13
UACGUAGGUGGUUUUCCCCUGAUAGUGCUAAGGGGGCCUGGAAGUUUGGACCGGGCAGAGCUCAACACAGCGUGGCAAAGUGGUUGUGGCUAGACUGCCUCUCUGGAUUCCUCGUCACUCAGCAGGGCAUCUCUGAGAGAAAUGCC [U52C C84U]	0.15
UACGUAGGUGGUUUUCCCCUGAUAGUGCUAAGGGGGCCUGGAAGUUUGGACCGGGCAGAGCUCAACACAGCGUGGCAAAGUGGCUGUGGCUAGACUGGCUCUCUGGAUUCCUCGUCACUCAGCAGGGCAUCUCUGAGAGAAAUGCC [U52C C98G]	0.17
UACGUAGGUGGUUUUCCCCUGAUAGUGCUAAGGGGGCCUGGAAGUUUGGACCGGGCAGAGCUCAACACAGCGUGGCAAAGUGGCUGUGGCUAGACUGCCUCUCUGGAUUCAUCGUCACUCAGCAGGGCAUCUCUGAGAGAAAUGCC [U52C C111A]	1.14
UACGUAGGUGGUUUUCCCCUGAUAGUGCUAAGGGGGCCUGGAAGUUUGGACCGGGCAGAGCUCAACACAGCGUGGCAAAGUGGCUGUGGCUAGACUGCCUCUCUGGAUUCCUUGUCACUCAGCAGGGCAUCUCUGAGAGAAAUGCC [U52C C113U]	0.99
UACGUAGGUGGUUUUCCCCUGAUAGUGCUAAGGGGGCCUGGAAGUUUGGACCGGGCAGAGCUCAACACAGCGUGGCAAAGUGGCUGUGGCUAGACUGCCUCUCUGGAUUCCUCGUCACUUAGCAGGGCAUCUCUGAGAGAAAUGCC [U52C C120U]	1.77
UACGUAGGUGGUUUUCCCCUGAUAGUGCUAAGGGGGCCUGGAAGUUUGGACCGGGCAGAGCUCAACACAGCGUGGCAAAGUGGCUGUGGCUAGACUGCCUCUCUGGAUUCCUCGUCACUCAGCAGGGAAUCUCUGAGAGAAAUGCC [U52C C128A]	0.71
UACGUAGGUGGUUUUCCCCUGAUAGUGCUAAGGGGGCCUGGAAGUUUGGACCGGGCAGAGCUCAACACAGCGUGGCAAAGUGGCUGUGGCUAGACUGCCUCUCUGGAUUCCUCGUCACUCAGCAGGGCAUCUCUGAGAGAAAUGCU [U52C C146U]	2.19
UACGUAGGUGGUUUUCCCCUGAUAGUGCUAAGGGGGCCUGGAAGUUUGGACCUGGCAGAGCUCAACACAGCGUGGCAAAGUGGCUGUGGCUAGACUGCCUCUCUGGAUUCCUCGUCACUCAGCAGGGCAUCUCUGAGAGAAAUGCC [U52C G53U]	1.6
UACGUAGGUGGUUUUCCCCUGAUAGUGCUAAGGGGGCCUGGAAGUUUGGACCGGACAGAGCUCAACACAGCGUGGCAAAGUGGCUGUGGCUAGACUGCCUCUCUGGAUUCCUCGUCACUCAGCAGGGCAUCUCUGAGAGAAAUGCC [U52C G55A]	0.14
UACGUAGGUGGUUUUCCCCUGAUAGUGCUAAGGGGGCCUGGAAGUUUGGACCGGGCAUAGCUCAACACAGCGUGGCAAAGUGGCUGUGGCUAGACUGCCUCUCUGGAUUCCUCGUCACUCAGCAGGGCAUCUCUGAGAGAAAUGCC [U52C G58U]	0.04
UACGUAGGUGGUUUUCCCCUGAUAGUGCUAAGGGGGCCUGGAAGUUUGGACCGGGCAGAGCUCAACACAGCUUGGCAAAGUGGCUGUGGCUAGACUGCCUCUCUGGAUUCCUCGUCACUCAGCAGGGCAUCUCUGAGAGAAAUGCC [U52C G72U]	0.41
UACGUAGGUGGUUUUCCCCUGAUAGUGCUAAGGGGGCCUGGAAGUUUGGACCGGGCAGAGCUCAACACAGCGUUGCAAAGUGGCUGUGGCUAGACUGCCUCUCUGGAUUCCUCGUCACUCAGCAGGGCAUCUCUGAGAGAAAUGCC [U52C G74U]	1.79
UACGUAGGUGGUUUUCCCCUGAUAGUGCUAAGGGGGCCUGGAAGUUUGGACCGGGCAGAGCUCAACACAGCGUGACAAAGUGGCUGUGGCUAGACUGCCUCUCUGGAUUCCUCGUCACUCAGCAGGGCAUCUCUGAGAGAAAUGCC [U52C G75A]	0.9
UACGUAGGUGGUUUUCCCCUGAUAGUGCUAAGGGGGCCUGGAAGUUUGGACCGGGCAGAGCUCAACACAGCGUGGCAAAAUGGCUGUGGCUAGACUGCCUCUCUGGAUUCCUCGUCACUCAGCAGGGCAUCUCUGAGAGAAAUGCC [U52C G80A]	1.82
UACGUAGGUGGUUUUCCCCUGAUAGUGCUAAGGGGGCCUGGAAGUUUGGACCGGGCAGAGCUCAACACAGCGUGGCAAAGUAGCUGUGGCUAGACUGCCUCUCUGGAUUCCUCGUCACUCAGCAGGGCAUCUCUGAGAGAAAUGCC [U52C G82A]	1.7
